Stoichiometry N (mol of the toxin per mol of actin) data for 1 substance are collected here from PMC2112731.

The target of the assay is F-actin in a glycerinated muscle fiber (rabbit (endogenous in psoas muscle fiber)) (UniProt P68135). Description: fluorescence intensity of a labeled muscle fiber.

With “phalloidin-(fluorescein isothiocyanate) FITC complex (peptide)”, the stoichiometry N (mol of the toxin per mol of actin) was 1.
